Assay results from patent US20220242958A1 (published 2022).

Columns and labels:
[1] = molecular target: T1, IL23R, cell-expressed on human T cells (human, UniProt Q5VWK5 24-629); test: cell-based or functional assay
T1 sequence (looked up): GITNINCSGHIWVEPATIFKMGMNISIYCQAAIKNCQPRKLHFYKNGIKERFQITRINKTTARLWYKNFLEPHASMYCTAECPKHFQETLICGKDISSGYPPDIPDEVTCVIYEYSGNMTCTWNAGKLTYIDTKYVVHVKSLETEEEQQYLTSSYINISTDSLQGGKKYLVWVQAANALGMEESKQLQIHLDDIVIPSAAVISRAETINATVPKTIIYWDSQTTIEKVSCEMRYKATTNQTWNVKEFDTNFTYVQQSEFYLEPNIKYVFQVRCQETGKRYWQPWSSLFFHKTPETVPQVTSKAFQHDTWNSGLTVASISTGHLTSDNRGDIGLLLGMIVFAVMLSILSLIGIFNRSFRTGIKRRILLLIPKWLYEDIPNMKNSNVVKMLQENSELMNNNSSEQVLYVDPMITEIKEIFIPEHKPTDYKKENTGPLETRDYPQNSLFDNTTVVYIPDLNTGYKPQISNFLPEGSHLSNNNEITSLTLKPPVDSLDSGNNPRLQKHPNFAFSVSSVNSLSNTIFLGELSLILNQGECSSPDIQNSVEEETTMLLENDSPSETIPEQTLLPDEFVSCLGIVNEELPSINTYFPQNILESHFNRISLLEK

[2] = molecular target: T2, human CD4, cell-expressed (human, UniProt P01730 26-458); test: FACS, MOLM-13 cells
T2 construct: whole, on cells

[3] = molecular target: T2, human CD4, cell-expressed; test: cell-based or functional assay
[4] = molecular target: CXCR4 and CD4 co-expressed on cells (human, UniProt P61073 1-352; P01730 26-458); test: cell-based or functional assay
[5] = molecular target: T3, human CXCR4 (on cells, membrane extracts or viral lipoparticles) (human, UniProt P61073 1-352); test: ELISA, hCXCR4 VLPs
T3 construct: whole, on cells; see assay; also called hCXCR4 VLPs; CXCR4-VLP

[6] = molecular target: T4, IL12Rβ2-Fc (human, UniProt Q99665 24-622); test: SPR and competition ELISA, against IL12Rb2#1
T4 construct: extracellular domain; bought; also called hIL-12Rβ2-Fc; Fc-fusion of human IL12Rβ2 extracellular domain (R&D Systems #1959-B2)
T4 sequence (looked up): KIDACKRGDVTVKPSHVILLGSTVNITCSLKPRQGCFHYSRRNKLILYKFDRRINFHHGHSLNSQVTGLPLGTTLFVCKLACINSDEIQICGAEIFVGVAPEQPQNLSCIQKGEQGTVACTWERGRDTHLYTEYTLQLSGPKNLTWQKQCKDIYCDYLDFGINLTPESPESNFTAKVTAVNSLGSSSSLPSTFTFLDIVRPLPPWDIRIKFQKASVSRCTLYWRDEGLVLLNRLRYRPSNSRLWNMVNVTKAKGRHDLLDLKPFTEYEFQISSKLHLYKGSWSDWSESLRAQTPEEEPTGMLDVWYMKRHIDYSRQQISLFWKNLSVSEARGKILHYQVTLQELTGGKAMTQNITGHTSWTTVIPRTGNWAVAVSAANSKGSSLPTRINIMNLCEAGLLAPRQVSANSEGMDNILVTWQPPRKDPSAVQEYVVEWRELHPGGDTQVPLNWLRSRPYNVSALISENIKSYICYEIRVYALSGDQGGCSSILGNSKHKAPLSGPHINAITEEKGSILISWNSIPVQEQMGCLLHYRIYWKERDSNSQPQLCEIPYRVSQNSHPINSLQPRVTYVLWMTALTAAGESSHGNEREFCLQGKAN

Chain of CXCR4 and CD4 co-expressed on cells (P61073 whole entry, chain 1 of 2, other chains not shown): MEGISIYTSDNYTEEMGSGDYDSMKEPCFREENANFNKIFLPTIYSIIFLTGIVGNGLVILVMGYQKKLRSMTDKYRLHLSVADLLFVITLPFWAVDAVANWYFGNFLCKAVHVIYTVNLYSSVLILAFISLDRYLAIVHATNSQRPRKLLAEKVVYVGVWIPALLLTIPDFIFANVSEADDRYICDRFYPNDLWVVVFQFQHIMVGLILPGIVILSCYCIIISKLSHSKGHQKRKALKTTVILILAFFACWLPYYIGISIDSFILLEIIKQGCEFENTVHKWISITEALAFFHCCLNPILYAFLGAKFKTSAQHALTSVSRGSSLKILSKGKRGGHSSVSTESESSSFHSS
T3 sequence (P61073 whole entry): as the sequence (P61073 whole entry, chain 1 of 2, other chains not shown) above

B1: IL23R#19-CD4#8 (bispecific antibody)
chain: EVQLVESGGGLVQPGGSLTLSCVASGRTFSTDVMGWFRQAPGKEREFVAAHRTSGISTVYAASVKGRFTISRDNAKNTVYLGMKSLKPEDTAVYVCAAGSDASGGYDYWGQGTLVTVSSGGGGSGGGGSGGGGSGGGGSGGGGSGGGGSGGGGSEVQLVESGGGSVQPGGSLTLSCGTSGRTFNVMGWFRQAPGKEREFVAAVRWSSTGIYYTQYADSVKSRFTISRDNAKNTVYLEMNSLKPEDTAVYYCAADTYNSNPARWDGYDFRGQGTLVTVSS
notes: also called BI#42; T023200042
IC50, IL-17 release PBMC D840 [1]: 58.9 nM | fold ctrl, IL-17 release PBMC D840 [1]: 1.7 fold | binding result [2]: binds

B2: 03F11 (CD4#8, Table 10) (VHH)
VHH: EVQLVESGGGSVQPGGSLTLSCGTSGRTFNVMGWFRQAPGKEREFVAAVRWSSTGIYYTQYADSVKSRFTISRDNAKNTVYLEMNSLKPEDTAVYYCAADTYNSNPARWDGYDFRGQGTQVTVSS
IC50, HIV-1 BaL(R5) in PBMC [3]: 610 nM

B3: 281F12-25GS-03F11 (bispecific antibody)
chain: EVQLVESGGGLVQAGDSLRLSCAASGRAFSRYAMGWFRQAPGKEREFVAAIGWGPSKTNYADSVKGRFTISRDNAKNTVYLQMNTLKPEDTAVYSCAAKFVNTDSTWSRSEMYTYWGQGTQVTVSSGGGGSGGGGSGGGGSGGGGSGGGGSEVQLVESGGGSVQPGGSLTLSCGTSGRTFNVMGWFRQAPGKEREFVAAVRWSSTGIYYTQYADSVKSRFTISRDNAKNTVYLEMNSLKPEDTAVYYCAADTYNSNPARWDGYDFRGQGTQVTVSS
notes: also called CXCR4#2-25GS-CD4#8
IC50, HIV-1 NL 4.3(X4) in MT-4 [4]: 0.21 nM | IC50, HIV-1 NL 4.3(X4) in PBMC [4]: 0.12 nM | IC50, HIV-1 NL 4.3 (X4) in U87 [4]: 2.67 nM | binding result [5]: binds

B4: IL12Rb2#2: 135A07 (VHH)
VHH: EVQLVESGGRLVQAGDSLRLSCAASGRTFTSYRMGWFRQAPGKEREFVSALRWSSGNIDYTYYADSVKGRFSISGDYAKNTVYLQMNSLKAEDTAVYYCAASTRWGVMESDTEYTSWGQGTLVTVSS
notes: also called LG135A07; IL12Rβ2#2
fold difference in KD and ligand competition between the family members [6]: 3.5 fold
